The results in this text go back to article PMC11917135.

The target of this assay is M53 protein (Streptococcus pyogenes) (UniProt P49054). Description: SPR; screen: 200 nM Plg injected for 2100 s at 10 μL/min over immobilised Mrp or control M protein, 900 s dissociation; no Fg. Background: Surface plasmon resonance follows binding to a sensor surface in real time, without labels.
UniProt P49054, sequence (P49054 30-384): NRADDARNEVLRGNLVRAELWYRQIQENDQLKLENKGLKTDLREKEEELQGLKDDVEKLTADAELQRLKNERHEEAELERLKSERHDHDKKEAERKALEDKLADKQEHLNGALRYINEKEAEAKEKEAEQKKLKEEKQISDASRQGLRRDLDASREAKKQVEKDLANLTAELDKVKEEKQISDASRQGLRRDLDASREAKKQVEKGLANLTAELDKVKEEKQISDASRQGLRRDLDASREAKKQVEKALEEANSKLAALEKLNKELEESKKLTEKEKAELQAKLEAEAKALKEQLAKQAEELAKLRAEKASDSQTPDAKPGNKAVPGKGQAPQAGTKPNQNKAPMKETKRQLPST

For the substance human Glu-plasminogen (natural protein), the dissociation constant Kd (in general, a measure of binding affinity in units of concentration) is less than 50 nM.
